Reference: the supplement of paper PMC9170038

Tested on: MS2 coat protein
Assay: apparent KD of MS2 coat protein; designed switch direction (-1 OFF switch, 1 ON switch): -1; higher = weaker reporter binding
Summary of the method: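 Three titration conditions were used: no input, 200 uM small-molecule ligand, and an oligonucleotide input. In each, SNAP-549-labelled MS2 coat protein was raised from 0.7 or 1.5 nM, doubling, to 3 µM over designed RNA switches transcribed on Illumina chips by stalled E. coli RNA polymerase. Curve fits of normalised cluster fluorescence gave values whose per-design median over clusters is the apparent KD.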

[1] = Eterna round: R95, input ligand: FMN 200 uM
[2] = Eterna round: R95, input ligand: microRNA oligo, concentration not stated
[3] = Eterna round: R95, input ligand: none
[4] = input ligand: microRNA oligo, concentration not stated

## CUGAGCAGACGGAGAUCCAACAUGAGGAUCACCCAUGUCUCAAAAGCUUUUUGCUCGCCUUAUCCUCCUCUGUUCUC [Ererququce] (puzzle: Sensor v3, turn-off variant 1)
[1]
  apparent KD of MS2 coat protein: 34.8 nM
[2]
  apparent KD of MS2 coat protein: 208 nM
[3]
  apparent KD of MS2 coat protein: 36.6 nM

## UCGUUUCGUGUAGGAUAUUGGCCUUCUCUGGGUCGAGAAGGACAUGAGGAUCACCCAUGUAUGUUAUUAUCACGCGUGGCGCAU [Design 83] (Eterna round: R96, puzzle: Exclusion NG 1)
Input ligand: FMN 200 uM
  apparent KD of MS2 coat protein: 35.3 nM
[4]
  apparent KD of MS2 coat protein: 15.8 nM
Input ligand: none
  apparent KD of MS2 coat protein: 28.2 nM

## GCAGCAUAGUUUACUAACUGUUACAUGAGGAUCACCCAUGUCUAGGAUAUGGUCUGGAUUACAGGCCAGAAGGAGGCAAGCUGC [Eli exng3 - 035] (Eterna round: R96, puzzle: Exclusion NG 3)
Input ligand: FMN 200 uM
  apparent KD of MS2 coat protein: 11.8 nM
[4]
  apparent KD of MS2 coat protein: 16.8 nM
Input ligand: none
  apparent KD of MS2 coat protein: 19.8 nM

## GGGCCCGGAGGAUAUACAUGAGGAUCACCCAUGUAGGGCCCGGGUAUUUUUGGGCCCUGUAGAAGGCCGGGCCC [-41.6, -38.7 kcal, A 19%, 5c,0] (Eterna round: R97, puzzle: Exclusion 3)
Input ligand: FMN 200 uM
  apparent KD of MS2 coat protein: 13 nM
Input ligand: none
  apparent KD of MS2 coat protein: 12.6 nM

## AACCUGAGGCUUUGCUUUAGGUGUACAUGAGGAUCACCCAUGUAGGAUAUGGUAGGCUUUGCUUACCAGAAGGACAUGUUAAUU [JL ENG3 1.11] (Eterna round: R96, puzzle: Exclusion NG 3)
Input ligand: FMN 200 uM
  apparent KD of MS2 coat protein: 201 nM
[4]
  apparent KD of MS2 coat protein: 48.9 nM
Input ligand: none
  apparent KD of MS2 coat protein: 47.1 nM

## CCAGCGAGUGUGAGGAUAUGCUGGUCCUUGGAUCAGCAGAAGGCACAUGAGGAUCACCCAUGUGAAAACGUUGG [JL bmx4 3.30] (puzzle: Brourd's mod of Exclusion 4)
[2]
  apparent KD of MS2 coat protein: 21.8 nM

## AAGAAACAUGAGGAUCACCCAUGUGAGGAUAUGAUCAAGAAAAGAAAAGAAAGAAGACUCAGAAGGCACAAAGG [salish99-ex1_r3_071] (puzzle: Exclusion 1)
[1]
  apparent KD of MS2 coat protein: 162 nM
[2]
  apparent KD of MS2 coat protein: 210 nM
[3]
  apparent KD of MS2 coat protein: 548 nM

## GUAGAUCGAGUUAGGAUAUGAUUAAAAUUCGGAUAUCAGAAGGAACUUGAGGAUCACCCAAGUAUAGAUGAUUC [JR_BMEx4_Sub057] (Eterna round: R97, puzzle: Brourd's mod of Exclusion 4)
Input ligand: FMN 200 uM
  apparent KD of MS2 coat protein: 135 nM
Input ligand: none
  apparent KD of MS2 coat protein: 29.8 nM

## UGUACCAUAGGAUAUACAUGAGGAUCACCCAUGUUAAUACGAUAUGUAAUGGUUACUUGUAGAAGGAUGAAAAG [Eternabot (L1) Solution 29] (Eterna round: R97, puzzle: Exclusion 3)
Input ligand: FMN 200 uM
  apparent KD of MS2 coat protein: 14.9 nM
Input ligand: none
  apparent KD of MS2 coat protein: 11 nM

## UUUAAUUUUUUUUUUUUACAAGCUUUUUGCUCGUCUUAUACAUGAGGAUCACCCAUGUGGGUGAAGGAUAAAUUAUC [JMF 26] (puzzle: Sensor v3, turn-off variant 2)
[1]
  apparent KD of MS2 coat protein: 35.6 nM
[2]
  apparent KD of MS2 coat protein: 36.2 nM
[3]
  apparent KD of MS2 coat protein: 34.3 nM

## GUUGUUUAUGUAGGAUAUGCCUGGCGUGCCUUCGCAGAAGGACAUGAGGAUCACCCAUGUAUUGCGGUCUGCGUUCAGAUCGCU [salish99_ExNG1_r4_023] (Eterna round: R96, puzzle: Exclusion NG 1)
Input ligand: FMN 200 uM
  apparent KD of MS2 coat protein: 49.8 nM
[4]
  apparent KD of MS2 coat protein: 38.8 nM
Input ligand: none
  apparent KD of MS2 coat protein: 52.7 nM

## GAUUCAUAUGACUUUCUAUACAUGAGGAUCACCCAUGUUUGUUUUUUUUGUUUUUCGCUUUUUAGUCGUCUUAUUAU [Gravy 3] (Eterna round: R97, puzzle: Sensor, turn-off variant 1)
Input ligand: FMN 200 uM
  apparent KD of MS2 coat protein: 19.6 nM
Input ligand: none
  apparent KD of MS2 coat protein: 19 nM

## AGAGAGUCAGGAUAUCGAAGGUAGAGAAAAGGAGAGAGGUACGAGAAGGGACAUGAGGAUCACCCAUGUAGGUG [JR_Exclusion4)Sub014] (puzzle: Exclusion 4)
[1]
  apparent KD of MS2 coat protein: 526 nM
[2]
  apparent KD of MS2 coat protein: 286 nM
[3]
  apparent KD of MS2 coat protein: 381 nM

## AUGCCACAUGAGGAUCACCCAUGUGAGGAUAUGGCCUGUUUGGCGUGUGCUGGCUCUGUCAGAAGGCGCGUGGG [salish99_ex1_r4_036] (Eterna round: R97, puzzle: Exclusion 1)
Input ligand: FMN 200 uM
  apparent KD of MS2 coat protein: 33.9 nM
Input ligand: none
  apparent KD of MS2 coat protein: 25.7 nM

## ACUCCAUAUGUGAGGAUAUGGAAAGAAAAUAAAAUCCAGAAGGCACAUGAGGAUCACCCAUGUACCGCAGGGAC [BmEX4 A.29] (Eterna round: R97, puzzle: Brourd's mod of Exclusion 4)
Input ligand: FMN 200 uM
  apparent KD of MS2 coat protein: 17.7 nM
Input ligand: none
  apparent KD of MS2 coat protein: 14.5 nM

## UAUAUGUCAGGAUAUUAGUAGUAAAUAAAUAAAAUUAUUACUGAGAAGGGACAUGAGGAUCACCCAUGUACCUU [Salish 062 v32] (Eterna round: R97, puzzle: Exclusion 4)
Input ligand: FMN 200 uM
  apparent KD of MS2 coat protein: 16.1 nM
Input ligand: none
  apparent KD of MS2 coat protein: 15.5 nM

## UUUUUGUGAGGAUAUUAGUAGUAAAUAAAUAAAAUUACUACUGAGAAGGCACAUGAGGAUCACCCAUGUUCCUC [salish99_ex4_r3_068] (puzzle: Exclusion 4)
[2]
  apparent KD of MS2 coat protein: 33.2 nM

## GUUAGUUAAGGAUAUACUGGGAGCUGCGGCGUCUCGCCGCAACAUGAGGAUCACCCAUGUAGAAGGUGACCGUU [JL ViennaUCT Enbibi mod 6] (puzzle: Exclusion 2)
[2]
  apparent KD of MS2 coat protein: 283 nM

## GAUCAUGCAGGAUAUACAGUUUCCAUGAAAACAUGGUCCUCACAUGAGGAUCACCCAUGUAGAAGGGCAUGAUC [Omei Ex2 A28] (Eterna round: R97, puzzle: Exclusion 2)
Input ligand: FMN 200 uM
  apparent KD of MS2 coat protein: 151 nM
Input ligand: none
  apparent KD of MS2 coat protein: 1490 nM

## CUAGAUCUUCGGAUCUAGUACAUGAGGAUCACCCAUGUGACGAGUUACAUGAAAAACAAGCUUUUUGCUCGUCUUAU [Sensor v3 - Turn-off variant 1 - 8] (puzzle: Sensor v3, turn-off variant 1)
[1]
  apparent KD of MS2 coat protein: 41.6 nM
[2]
  apparent KD of MS2 coat protein: 102 nM
[3]
  apparent KD of MS2 coat protein: 46.6 nM

## ACCGUGCAAGGAUAUCGUUACCUCGACAUGAGGAUCACCCAUGUGGCCAUAUAGCGAUUGCGAGAAGGUGCGGGUA [Aatveti] (puzzle: Exclusion 5)
[2]
  apparent KD of MS2 coat protein: 85.2 nM

## GUACAACAUGAGGAUCACCCAUGUGAGGAUAUGCGAAUUUCAUCAAAAGAUGAAAUUUGCAGAAGGCACUGUAC [Omei Ex1 A10] (Eterna round: R97, puzzle: Exclusion 1)
Input ligand: FMN 200 uM
  apparent KD of MS2 coat protein: 19.2 nM
Input ligand: none
  apparent KD of MS2 coat protein: 20.8 nM

## AGUAGUAGUAUCCGAUCUUACAUGAGGAUCACCCAUGUAUCUAGACGUGCACGCGAUGCUCGUCAGACUACCAGAUG [salish99_TOv1_r3_052] (puzzle: Sensor v3, turn-off variant 1)
[1]
  apparent KD of MS2 coat protein: 49.3 nM
[2]
  apparent KD of MS2 coat protein: 66.3 nM
[3]
  apparent KD of MS2 coat protein: 60.1 nM

## UAUUAGCAAGCGAGAUCCCACAUGAGGAUCACCCAUGUGCUCGCAUCCAGAAUUACUGGGUGCAAAGCUCGUCUUAU [Winner reversed engineered 8] (Eterna round: R97, puzzle: Sensor, turn-off variant 1)
Input ligand: FMN 200 uM
  apparent KD of MS2 coat protein: 23.1 nM
Input ligand: none
  apparent KD of MS2 coat protein: 23.3 nM

## CAAAUCUGAGGAUAUCGAUUUUUGUACAUGAGGAUCACCCAUGUCCUUUUUAUUAAAUCCCGAGAAGGCAGUGUAU [JR_E5_Sub096] (puzzle: Exclusion 5)
[2]
  apparent KD of MS2 coat protein: 24.3 nM

## AUUGAUGUUGAGGAUAUGCUUUUAUUUAUUAUAGCAGAAGGCGAUACAUGAGGAUCACCCAUGUUCAUGGCUUU [JR_E6_Sub097] (puzzle: Exclusion 6)
[2]
  apparent KD of MS2 coat protein: 11 nM

## ACAAAACAUGAGGAUCACCCAUGUGAGGAUAUGCGAAACAAACAAACAAACAAACAAAGCAGAAGGCACAACAA [Ex 1 Tesla 3] (Eterna round: R96, puzzle: Exclusion 1)
[4]
  apparent KD of MS2 coat protein: 15.6 nM

## GAAUGAGAGCAGGAUAUCUUAUAAAUGUAUGAAAGAGAAGGGCUCACAUGAGGAUCACCCAUGUGGUCCUAAAU [jl-ex6-4.74 jandersonlee mod] (Eterna round: R97, puzzle: Exclusion 6)
Input ligand: FMN 200 uM
  apparent KD of MS2 coat protein: 286 nM
Input ligand: none
  apparent KD of MS2 coat protein: 44.5 nM

## CAUACUGAAGUUAGGAUAUGCGGCCGAAUACGGAUGUAGAAGGGACAUGAGGAUCACCCAUGUAGAUAGUAAAG [EX-4 Malc #15] (puzzle: Brourd's mod of Exclusion 4)
[1]
  apparent KD of MS2 coat protein: 20.8 nM
[2]
  apparent KD of MS2 coat protein: 20.1 nM
[3]
  apparent KD of MS2 coat protein: 20.5 nM

## GCCAGAGCAGGAUAUCUAAUAUCUCACAUGAGGAUCACCCAUGUCCAGCGAAAGCUGGAGGGAGAAGGGCUCUGGC [Fiskers Ex 5 - 10] (puzzle: Exclusion 5)
[1]
  apparent KD of MS2 coat protein: 34.3 nM
[2]
  apparent KD of MS2 coat protein: 49.8 nM
[3]
  apparent KD of MS2 coat protein: 61.8 nM

## UAGUUACAUGAGGAUCACCCAUGUGAGGAUAUGAGUCAGUCACGGUGACGUGGCUGACUCAGAAGGCACAAAGG [Mat - Exclusion 1 - JL Mod - D38] (Eterna round: R97, puzzle: Exclusion 1)
Input ligand: FMN 200 uM
  apparent KD of MS2 coat protein: 430 nM
Input ligand: none
  apparent KD of MS2 coat protein: 126 nM

## CGAGCCUAUGUAAGGAUAUCACAAUAAAACCAGUGUGAGAAGGUACAUGAGGAUCACCCAUGUUCACGACUGGC [BmEX4 A.26] (Eterna round: R97, puzzle: Brourd's mod of Exclusion 4)
Input ligand: FMN 200 uM
  apparent KD of MS2 coat protein: 16.9 nM
Input ligand: none
  apparent KD of MS2 coat protein: 16.8 nM

## UAACGGGCUUCUUCGUUUACAACAUGAGGAUCACCCAUGUUCGAGGAUAUCCACUAAGCUCUUCAGGAGAAGGCGAACAUAAUG [Rizaoran] (Eterna round: R96, puzzle: Exclusion NG 3)
Input ligand: FMN 200 uM
  apparent KD of MS2 coat protein: 37.2 nM
[4]
  apparent KD of MS2 coat protein: 15.1 nM
Input ligand: none
  apparent KD of MS2 coat protein: 14.6 nM

## GAAAAGGUAGGAUAUACGAAAAAAAAGGGUAGAAAAAAAACACAUGAGGAUCACCCAUGUAGAAGGACCAAAAA [salish99_ex2_r3_050] (puzzle: Exclusion 2)
[1]
  apparent KD of MS2 coat protein: 98.9 nM
[2]
  apparent KD of MS2 coat protein: 45 nM
[3]
  apparent KD of MS2 coat protein: 34.2 nM

## CGUUGUCAAGGAUAUAUAGAGCUAUACAUGAGGAUCACCCAUGUGGUUAGUGUUGUGUGAGUAGAAGGUGGAAUGU [Eternabot (L2) Solution 99] (Eterna round: R97, puzzle: Exclusion 5)
Input ligand: FMN 200 uM
  apparent KD of MS2 coat protein: 84.3 nM
Input ligand: none
  apparent KD of MS2 coat protein: 224 nM
